From patent publication US20250197882A1, “USE OF JAZ PROTEIN AND ITS DERIVATIVES IN AGRICULTURAL PEST PREVENTION AND CONTROL” (priority 2022, published 2025)

Tests used:
[1] = system: Sf9 ovarian cell line of Spodoptera frugiperda; type: cell-based
Source text: Using insect cell lines toxicity testing and mechanism of action research of insecticides, as a new detection method, has the advantages of good target homogeneity, easy control of experimental conditions, and low screening costs compared to traditional bioassay methods. It is suitable for toxicological research of insecticidally active substances. In recent years, scholars at home and abroad have conducted extensive research on the activity of plant natural active ingredients on insect cells, and have achieved many research results of the action mechanism of plant natural active ingredients on insect cells, showing a good correlation between experimental results and in vivo toxicity testing and field experiments.
Fluorescence staining experiment: toxic effect of GhJAZ protein on Sf9 cell line (CL-0205, Procell) was detected using a Calcein/PI Cell Viability and Cytotoxicity Detection kit (Catalogue No.: C2015L, Beyotime, China). The Calcein/PI Cell Activity and Cytotoxicity Detection Kit is a very convenient kit for detecting the viability of animal cells based on Calcein AM (Calcein AM) and PI (Propidium Iodide) dual fluorescence staining. The specific steps are as follows: Adherent cells were blown and transferred to a 15 mL EP tube, centrifuged at 860-870 rpm for 5 minutes. […] After 30 minutes of culture, fluorescence microscopy images were taken. […]

[2] = system: cotton bollworm (Helicoverpa armigera); experiment: Feed film-covering bioassay, larval growth inhibition, cotton bollworm; type: in vivo; settings: protein on artificial feed, after 7 days, FIGS. 6D, 6F
Description: (§1) Treatment group: add the prepared insect feed (Henan Jiyuan Baiyun Industrial Co., Ltd., product name: Grassland armyworm artificial feed) to a 24 well plate, with a volume of 200 microliters per well; use a film covering method to add diluted GhJAZ8 protein solutions of different concentrations (diluted with PBS) to the surface of the feed, and shake in the incubator until the protein is immersed in the culture medium. Take grassland armyworm and cotton bollworm larvae that have not been fed within the first 12 hours of incubation as experimental subjects, and place them in a culture box, with each concentration of protein applied to 100 larvae. Set 16 replicates for each protein concentration and 3 parallel measurement groups for each dose. Control group: different from the experimental group, PBS solution was added to the surface of the feed using a film covering method, and the rest were the same. After 7 days, age and weight will be recorded for statistical analysis. [formula]

[3] = system: fall armyworm (Spodoptera frugiperda); experiment: Feed film-covering bioassay, larval growth inhibition, fall armyworm; type: in vivo; settings: protein on artificial feed, after 7 days, FIGS. 6C, 6E
Description: as §1

SfAPN4 = experiment: Yeast two-hybrid (Y2H) interaction with SfAPN4; type: binding, Spodoptera frugiperda; settings: Y2HGold yeast, quadruple dropout medium, FIG. 4B
Chain of SfAPN4 (as listed by the source): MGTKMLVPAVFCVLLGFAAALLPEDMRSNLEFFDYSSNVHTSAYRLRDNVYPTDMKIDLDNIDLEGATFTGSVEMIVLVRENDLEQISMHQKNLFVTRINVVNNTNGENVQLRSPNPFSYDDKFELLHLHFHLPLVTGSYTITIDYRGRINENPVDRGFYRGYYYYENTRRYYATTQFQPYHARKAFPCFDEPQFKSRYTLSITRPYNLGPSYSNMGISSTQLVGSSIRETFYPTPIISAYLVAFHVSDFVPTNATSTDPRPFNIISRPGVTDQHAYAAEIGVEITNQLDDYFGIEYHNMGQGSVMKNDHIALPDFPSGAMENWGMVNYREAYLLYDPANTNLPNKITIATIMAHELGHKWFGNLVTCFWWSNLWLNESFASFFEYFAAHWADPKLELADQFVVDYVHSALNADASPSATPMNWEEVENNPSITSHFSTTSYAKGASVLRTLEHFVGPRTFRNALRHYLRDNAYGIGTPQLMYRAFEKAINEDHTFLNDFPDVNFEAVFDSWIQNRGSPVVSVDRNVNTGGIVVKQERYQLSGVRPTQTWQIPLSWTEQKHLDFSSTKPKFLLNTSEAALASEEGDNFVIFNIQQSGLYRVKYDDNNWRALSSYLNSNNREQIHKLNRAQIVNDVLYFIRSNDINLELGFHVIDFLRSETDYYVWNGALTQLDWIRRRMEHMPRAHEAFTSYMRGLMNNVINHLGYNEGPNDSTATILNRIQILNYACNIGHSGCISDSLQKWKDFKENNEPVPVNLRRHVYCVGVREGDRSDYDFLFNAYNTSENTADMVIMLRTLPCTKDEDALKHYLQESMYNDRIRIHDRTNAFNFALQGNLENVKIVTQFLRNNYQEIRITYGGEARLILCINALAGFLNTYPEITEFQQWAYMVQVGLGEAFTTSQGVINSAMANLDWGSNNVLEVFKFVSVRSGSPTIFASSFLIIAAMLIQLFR
Source text: DNA fragments shown in PGADT7::GhJAZ8 (SEQ ID No. 3), PGADT7::GhJAZ8^LGK (SEQ ID No. 25), PGADT7::GhJAZ13 (SEQ ID No. 8), PGADT7::GhJAZ14 (SEQ ID No. 10), PGADT7::GhJAZ24 (SEQ ID No. 12), PGADT7::GhJAZ27 (SEQ ID No. 14) and PGADT7::GhJAZ28 (SEQ ID No. 16) were inserted between the BamH1 and EcoR1 of a PGADT7 plasmid (Unibio Biotech, VT1639), respectively, to obtain pGADT7+GhJAZ8, pGADT7+GhJAZ8^LGK, pGADT7+GhJAZ13, pGADT7+GhJAZ14, pGADT7+GhJAZ24, pGADT7+GhJAZ27 and pGADT7+GhJAZ28.
The DNA fragment shown in PGBKT7: SfAPN4 (SEQ ID NO: 22) was inserted between BamH1 and EcoR1 of a pGBKT7 plasmid (Unibio Biotech, catalog number: VT1638), to obtain a vector plasmid, named pGBKT7+SfAPN4.
The mixture was centrifuged at 5000 rpm for 30 seconds to discard the supernatant, and the pellet was resuspended in ddH2O, coated on a double dropout medium (SD/-Leu/-Trp) and cultured at 28° C. for 2 days. After occurrence of the clonal plaques, the clones were selected and placed a quadruple dropout medium (SD Ade/-His/-Leu/-Trp, with Aba and X-α-gal added) and the interaction was observed after 4 days of culture at 28° C.

Molecule	cytotoxicity on Sf9 cells [1]	growth inhibition of cotton bollworm larvae [2]	growth inhibition of fall armyworm larvae [3]	interaction with SfAPN4 (Y2H) (SfAPN4)
GhJAZ16: cotton JAZ protein, SEQ ID NO: 5, expressed from pET-30a-GhJAZ16 (protein) MERDFIGLRSKNAAITIKVEPSNAQPDDSVLLRGSGMQLSFSNKVSTVPQFLSFDGARDDKPRKATHDTLLSSGFMTIPAADSNKKPHPGLTQKQGGNHYAATTYGLQQLDGHQSRLSHEARIFPSSSQPNHTITVSMNTPLLQPHLASPGQNIIGHTINPQPFTGVPIMAAPVSVVPPSSPIIGTTDLRNAAKSSRAPAQLTIFYAGSVCVYDDVSPDKAQAIMLLAGNVSSTTQSKTAPVTQPQTHIPRPCTLSPFSGLPNHLSVTSHVSLQPVAGSSGTNELTAATRIGALASTNNQPDPPKLVNPAVAVPQARKASLARFLEKRKERVSNTSPYNICKRSESGPLASDGISFSVTSAGSSPLQAIN	certain cytotoxic effects			
GhJAZ5: cotton JAZ protein, SEQ ID NO: 1, expressed in E. coli from pET-30a-GhJAZ5 (protein) MSSCSESTAMKPARSPEKPSFAQTCNLLSQYLKEKGSFGDLSLGMTCNVEANGTPVVPPPTMNLFPLNDKSDDVCGRNGGNPKNLTSMDLFPQQAGLASKDDSPNKLEPQTAPMTIFYGGQVIVFNDFPANKAKEIMLLASNSSSQSNNSFNPIPFTSSIARSPIESSIGVPPTSKPVHPAQRAVPGDLPIARRASLHRFLEKRKDRITAKAPYQINNSAAAPSLSGDNKSWLGLAAQSP	certain cytotoxic effects			
GhJAZ8^LGK: GhJAZ8 with NGR domain mutated, N43G44R45 to L43G44K45, coding sequence SEQ ID No. 25 (protein) MRRNCNLELRLLPSSYPSDSHDMMEERIESPKTQQQQLTIFYLGKVCVSDVTELQAKAILMLANRERDERMKSPTGWEPVSPTLKSQVKCPNTALSMKRSLQRFLQKRKTRIQATSPYH		weakened	weakened	loses interaction
